In article PMC2894786, “Fibronectin-binding protein B variation in Staphylococcus aureus” (BMC Microbiology, 2010):

B1: recombinant FnBPB N23 isotype I (residues 162-480) from S. aureus strain 8325-4 (domain or fragment)
chain: TGTDVTNKVEVEEGSEIVGHKQDTNVVNPHNAERVTLKYKWKFGEGIKAGDYFDFTLSDNVETHGISTLRKVPEIKSTDGQVMATGEIIGERKVRYTFKEYVQEKKDLTAELSLNLFIDPTTVTQKGNQNVEVKLGETTVSKIFNIQYLGGVRDNWGVTANGRIDTLNKVDGKFSHFAYMKPNNQSLSSVTVTGQVTKGNKPGVNNPTVKVYKHIGSDDLAESVYAKLDDVSKFEDVTDNMSLDFDTNGGYSLNFNNLDQSKNYVIKYEGYYDSNASNLEFQTHLFGYYNYYYTSNLTWKNGVAFYSNNAQGDGKDKLK
notes: cloned BamHI/SmaI into pQE30 with a 3' stop codon; also called rN23 isotype I; rN23 type I; source: E. coli TOPP 3, pQE30, purified (Ni2+ chelate chromatography); not shown: His6, N-terminal, kept

Key:
human fibrinogen (human) = human fibrinogen (human) (UniProt P02671); assay: ELISA; solid-phase binding: elastin (50 μg/ml), fibrinogen (10 μg/ml) or fibronectin (10 μg/ml) coated on microtitre wells; purified rFnBPB N23 in PBS added, 37°C for 2 hr; bound protein detected with anti-hexahistidine monoclonal antibody 7E8
[1] = target: human fibronectin (human); assay: as above
[2] = target: human aortic elastin (human) (UniProt P15502); assay: as above
[3] = target: human fibronectin (human); assay: SPR; BIAcore X100; fibrinogen, elastin or fibronectin amine-coupled to CM5 chips; rN23 type I passed over at 0.15 μM to 10 μM in PBS; blank flow cell subtracted; equilibrium dissociation constants
human aortic elastin [4] = target: T1, human aortic elastin (human, UniProt P15502 27-786); assay: as above; conditions: both partners purified
T1 construct: elastin from human aorta; Tissue elastin is a cross-linked material; The vendor named for the ELISA differs from that named for the SPR; source: bought: Elastin Products Company (ELISA); Enzyme Research Laboratories (SPR)
T1 sequence: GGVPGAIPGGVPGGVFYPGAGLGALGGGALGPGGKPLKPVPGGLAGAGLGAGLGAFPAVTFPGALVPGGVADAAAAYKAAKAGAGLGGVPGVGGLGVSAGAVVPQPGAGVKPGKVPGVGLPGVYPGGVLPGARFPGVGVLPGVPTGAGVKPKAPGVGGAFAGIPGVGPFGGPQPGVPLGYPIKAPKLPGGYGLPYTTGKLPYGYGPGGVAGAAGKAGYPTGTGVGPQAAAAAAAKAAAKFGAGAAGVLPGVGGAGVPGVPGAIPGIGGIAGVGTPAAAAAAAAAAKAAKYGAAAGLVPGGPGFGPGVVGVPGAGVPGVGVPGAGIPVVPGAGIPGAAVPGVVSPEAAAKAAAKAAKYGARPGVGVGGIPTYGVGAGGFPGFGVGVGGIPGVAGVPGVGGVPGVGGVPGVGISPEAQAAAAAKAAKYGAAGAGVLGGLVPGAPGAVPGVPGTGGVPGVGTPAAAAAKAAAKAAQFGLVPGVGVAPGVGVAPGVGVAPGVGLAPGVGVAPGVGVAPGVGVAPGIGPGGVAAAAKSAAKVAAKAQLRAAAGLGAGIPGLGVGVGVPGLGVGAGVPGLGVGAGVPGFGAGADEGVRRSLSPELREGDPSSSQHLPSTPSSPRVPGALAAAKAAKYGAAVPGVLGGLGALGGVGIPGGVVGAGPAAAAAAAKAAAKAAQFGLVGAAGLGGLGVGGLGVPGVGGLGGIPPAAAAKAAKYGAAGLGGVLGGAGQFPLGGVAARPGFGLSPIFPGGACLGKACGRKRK

human fibrinogen [5] = target: T2, human fibrinogen (human, UniProt P02671-2 20-644; P02675 31-491; P02679-2 27-437); assay: as above; conditions: both partners purified
T2 construct: fibrinogen alpha chain, human; fibrinogen beta chain, human; fibrinogen gamma chain, human; source: bought: Calbiochem; copies: + +
T2 sequence 1: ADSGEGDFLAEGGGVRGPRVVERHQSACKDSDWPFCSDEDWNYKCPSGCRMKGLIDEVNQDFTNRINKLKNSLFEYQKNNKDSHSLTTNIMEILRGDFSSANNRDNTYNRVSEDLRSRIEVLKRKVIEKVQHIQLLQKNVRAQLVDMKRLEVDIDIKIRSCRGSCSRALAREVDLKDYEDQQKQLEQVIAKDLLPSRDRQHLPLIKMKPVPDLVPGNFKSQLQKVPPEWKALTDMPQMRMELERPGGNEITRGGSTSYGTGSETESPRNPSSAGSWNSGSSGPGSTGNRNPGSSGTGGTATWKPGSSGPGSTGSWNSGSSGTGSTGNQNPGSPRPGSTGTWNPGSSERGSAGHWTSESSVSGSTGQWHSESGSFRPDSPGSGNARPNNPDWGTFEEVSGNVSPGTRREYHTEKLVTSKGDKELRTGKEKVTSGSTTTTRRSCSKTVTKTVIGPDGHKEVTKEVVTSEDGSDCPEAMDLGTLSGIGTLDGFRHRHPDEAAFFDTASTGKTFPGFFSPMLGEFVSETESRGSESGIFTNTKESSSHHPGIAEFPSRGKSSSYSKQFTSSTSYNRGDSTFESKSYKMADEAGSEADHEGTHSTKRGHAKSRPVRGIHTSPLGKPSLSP
T2 sequence 2: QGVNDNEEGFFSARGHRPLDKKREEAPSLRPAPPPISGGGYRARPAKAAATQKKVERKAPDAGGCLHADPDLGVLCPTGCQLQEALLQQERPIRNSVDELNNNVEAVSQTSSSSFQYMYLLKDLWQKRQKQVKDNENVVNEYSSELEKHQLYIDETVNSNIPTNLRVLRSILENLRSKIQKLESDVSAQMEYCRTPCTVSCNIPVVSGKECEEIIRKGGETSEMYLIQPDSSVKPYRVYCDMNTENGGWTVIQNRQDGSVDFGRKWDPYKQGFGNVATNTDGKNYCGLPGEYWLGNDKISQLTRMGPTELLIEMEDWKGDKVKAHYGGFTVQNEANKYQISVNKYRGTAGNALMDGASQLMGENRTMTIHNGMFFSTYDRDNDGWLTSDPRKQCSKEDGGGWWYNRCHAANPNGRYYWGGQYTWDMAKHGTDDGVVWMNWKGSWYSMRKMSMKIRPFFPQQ
T2 sequence 3: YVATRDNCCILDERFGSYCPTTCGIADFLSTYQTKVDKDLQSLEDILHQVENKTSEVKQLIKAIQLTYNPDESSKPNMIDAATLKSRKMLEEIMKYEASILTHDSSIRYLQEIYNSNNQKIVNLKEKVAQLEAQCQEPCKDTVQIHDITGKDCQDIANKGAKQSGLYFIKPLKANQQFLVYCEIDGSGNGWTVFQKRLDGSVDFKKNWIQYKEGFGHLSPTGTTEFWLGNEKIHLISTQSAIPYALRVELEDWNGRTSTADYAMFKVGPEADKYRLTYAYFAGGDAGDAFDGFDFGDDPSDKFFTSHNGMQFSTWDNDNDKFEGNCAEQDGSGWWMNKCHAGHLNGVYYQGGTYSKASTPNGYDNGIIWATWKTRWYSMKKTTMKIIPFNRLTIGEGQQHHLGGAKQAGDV

human aortic elastin [6] = target: T1, human aortic elastin; assay: ELISA; solid-phase binding: elastin (50 μg/ml), fibrinogen (10 μg/ml) or fibronectin (10 μg/ml) coated on microtitre wells; purified rFnBPB N23 in PBS added, 37°C for 2 hr; bound protein detected with anti-hexahistidine monoclonal antibody 7E8; conditions: both partners purified
human fibrinogen [7] = target: T2, human fibrinogen; assay: as above; conditions: both partners purified

Molecule	EC50 (human fibrinogen (human)) [nM]	EC50 [1] [nM]	EC50 [2] [nM]	Kd [3] [nM]	Kd (human aortic elastin [4]) [nM]	Kd (human fibrinogen [5]) [nM]	EC50 (human aortic elastin [6]) [nM]	EC50 (human fibrinogen [7]) [nM]
recombinant FnBPB N23 isotype II from S. aureus strain N315 (domain or fragment)	500	1500	900	–	–	–	–	–
recombinant FnBPB N23 isotype IV from S. aureus strain P1 (domain or fragment)	500	1500	900	–	–	–	–	–
recombinant FnBPB N23 isotype III from S. aureus strain MSSA476 (domain or fragment)	500	1500	900	–	–	–	–	–
recombinant FnBPB N23 isotype V from S. aureus strain 2 (domain or fragment)	500	1500	900	–	–	–	–	–
recombinant FnBPB N23 isotype VI from S. aureus strain 3077 (domain or fragment)	500	1500	900	–	–	–	–	–
recombinant FnBPB N23 isotype I (residues 162-480) from S. aureus strain 8325-4 (from UniProt A0A0H2XKG3 162-480) (domain or fragment)	–	1500	–	2500	–	–	–	–
recombinant FnBPB N23 isotype VII from S. aureus strain 233 (domain or fragment)	500	1500	900	–	–	–	–	–
B1	–	–	–	–	3200	2000	~900	~500
